Patent publication US20230295310A1 (ABCELLERA BIOLOGICS, published 2023)
Residue numbers refer to the chain shown, from its start. One block for each binder: values may come before it.

How the values were obtained:
human CD3e/d = target: T1, human CD3e/d (human, UniProt P07766 23-126; P04234 22-105); assay: SPR (Carterra LSA), mAb on chip
T1 construct: Bought soluble protein; also called hCD3e/d; human CD3/ed (Sino CT038-H2508H)
Protocol: (§1) High-throughput surface plasmon resonance (SPR) coupled kinetic experiments were performed on a Carterra LSA® instrument equipped with an HC-30M chip type (Carterra, USA). The instrument uses two microfluidic modules, a single-flow cell (SFC) and a 96 printhead, to deliver samples to the chip surface via back-and-forth cycling of a fixed sample volume. An up to 384-ligand array is generated by docking the MFC onto each of the four nested print block locations in a serial manner.
(§2) The purified mAbs were immobilized on a Carterra LSA® HC-30M chip by direct coupling. The chip surface was first activated by flowing a freshly prepared 1:1:1 activation mix of 100 mM MES pH 5.5, 100 mM S-NHS, 400 mM EDC for 7 min. mAbs diluted to 10 μg/mL in 10 mM NaOAc pH 4.25+0.01% TWEEN®20 were then injected and printed onto the chip surface simultaneously using the MFC printhead for 10 min. Finally, the chip surface was quenched by flowing 1 M ethanolamine for 7 min (to block the excess reactive esters), followed by 2 wash steps of 15 s each in 25 mM MES pH 5.5. In addition to expressed and purified mAbs, relevant benchmarks and negative control mAbs were also printed on the chip surface.
(§3) The data were analyzed using the Carterra Kinetics analysis software. Briefly, the data were referenced with the interstitial reference spots and double-referenced to a buffer cycle, and then fit globally to a 1:1 Langmuir binding model to determine their apparent association (ka) and dissociation (kd) kinetic rate constants and binding affinity constants (KD).

human CD3e/g = target: T2, human CD3e/g (human, UniProt P07766 23-126; P09693 23-116); assay: SPR (Carterra LSA), mAb on chip
T2 construct: Bought soluble protein; also called hCD3e/g; human CD3e/g (Acro CDD-C52W4)
Protocol: as §1, §2, §3

T1 sequence (P07766 23-126, chain 1 of 2): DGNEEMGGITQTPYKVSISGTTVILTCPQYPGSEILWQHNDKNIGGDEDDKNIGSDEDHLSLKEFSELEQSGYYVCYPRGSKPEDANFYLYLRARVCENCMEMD
T1 sequence (P04234 22-105, chain 2 of 2): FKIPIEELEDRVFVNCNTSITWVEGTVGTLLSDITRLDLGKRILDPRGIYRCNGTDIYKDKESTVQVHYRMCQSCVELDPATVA
T2 sequence (P07766 23-126, chain 1 of 2): as the sequence (P07766 23-126, chain 1 of 2) above
T2 sequence (P09693 23-116, chain 2 of 2): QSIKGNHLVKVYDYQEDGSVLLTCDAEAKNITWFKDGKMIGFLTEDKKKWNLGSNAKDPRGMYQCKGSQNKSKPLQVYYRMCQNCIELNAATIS

Kd (human CD3e/d): 450 nM
B2: mAb 284 (antibody, V domains shown)
VH: EVQLLESGGGLVQPGGSLRLSCAASGFTFSSYAMSWVRQAPGKGLEWVSAISGSSGRTYYTDSVKGRFTISRDNSKNTLSLQMNSLRAEDTAVYYCAKKYSYYYYYMDVWGKGTTVTVSS
VL: SYELTQPLSVSVALGQTAKITCGGNNIGSKNVHWYQQKPGQAPVLVIYRDSNRPSGIPERFSGSNSGNTATLTISRAQAGDEADYYCQVWDSSTAVFGGGTQLTAL
notes: VH and VL only

Kd (human CD3e/d): 84 nM
B3: mAb 318 (antibody, V domains shown)
VH: EGQLLESGGGLVQPGGSLRLSCAASGFTFSRYAMSWIRQAPGKGLEWVSVIDGSGGDKNYADSVKGRFTISRDNSKNSLYLLMNGLRVEDTAIYFCAKKFSYYYYYMDVWGKGTSVTVSS
VL: B2 VL with K19R, S29G, N31D, S93R
notes: VH and VL only

Kd (human CD3e/d): 250 nM
B4: mAb 306 (antibody, V domains shown)
VH: EVQLLESGGGLVQPGGSLRLSCAASGFTFNSYAMSWVRQAPGRGLEWVSAISGRKSTTYYADSVKGRFTISRDNSKNTLYLQMNSLRAEDTAVYYCAKLWNYYYYYMDVWGKGTTVTVSS
VL: B2 VL with K19R, N31D
notes: VH and VL only

Kd (human CD3e/d): 110 nM
B5: mAb 301 (antibody, V domains shown)
VH: EVQLLESGGGLVQPGGSRRLSCAASGFTFSSYAMSWVRQAPGKGLEWVSVISGRGDNTNYADSVKGRFTISRENSKNMLYLQMNSLRAEDTAVYYCAKKYSYYYYYMDVWGKGTTVTVSS
VL: B2 VL with K19R, N31D, S93R
notes: VH and VL only

Kd (human CD3e/d): 70 nM
B6: mAb 316 (antibody, V domains shown)
VH: B5 VH with S30R, S31T, S52N, N57D, E73D, M78I, Y80F
VL: B2 VL with K19R, N31D, S93R
notes: VH and VL only

Kd (human CD3e/d): 150 nM
B7: mAb 285 (antibody, V domains shown)
VH: B2 VH with V12G, S31N, A50V, S55G, R57D, T58K, Y59N, T61A, S80Y
VL: B2 VL with K19R, N31D, R76S, S93R
notes: VH and VL only

Kd (human CD3e/d): 120 nM
B8: mAb 304 (antibody, V domains shown)
VH: B5 VH with M78I
VL: B2 VL with K19R, N31D, S93R
notes: VH and VL only

Kd (human CD3e/d): 7.72 nM
B13: mAb 179 (antibody, V domains shown)
VH: EVQLVESGGGLVQPGRSLRLSCAASGFTFDDYTMHWVRQTPGKGLEWVSDISWNSGSIGYADSVKGRFTISRDNAKNTLYLQMNSLRAEDTALYYCVKDSSGYGHYLYYYMDVWGKGTTVTVSS
VL: DIQMTQSPSSLSASVGDRVTITCRASQSIRNYLNWYQQSPGRAPKLLIFSASSLQSGVPSRFSGSGSGTDFTLTISSLQPEDFVTYYCQQRYSTPITFGQGTRLEIK
notes: VH and VL only

Kd (human CD3e/d): 18 nM
B15: mAb 240 (antibody, V domains shown)
VH: QGKLVESGGGVVQPGRSLRLSCVASGFTFSGYGMHWVRQAPNKGLEWVAIIYYDGKNKYYADSVKGRFTISRDNSKNTLYLQLNSLRAEDTAVYYCVRGPGYNWFDPWGQGTLVTVSS
VL: EIVLTQSPDFQSVTPKEKVTITCRASQNIGSSLHWYQQKPDQSPKLLIKHASQSFSGVPSRFSGSGSGTDFTLTINSLEAEDAATYYCHQSSSLPYTFGQGTKLEIK
notes: VH and VL only

Kd (human CD3e/d): 24 nM
B17: mAb 258 (antibody, V domains shown)
VH: EVQLLESGGGLVQPGGSLRLSCAASGFTFSNYAMNWVRQAPGKGLEWVSVISNSGGTRLYVDSVKGRFTISRDNSKNTLYLQMSSLRAADTAVYYCAKDAAAALYYYYFYYMDVWGKGTTVTVSS
VL: B15 VL with N28S, H50Y
notes: VH and VL only

Kd (human CD3e/d): 18 nM
B18: mAb 230 (antibody, V domains shown)
VH: EVQLLESGGGLVQPGGSLRLSCAASGFTFSSYAMSWVRQAPGKGLEWVSSISGSGGSRYYADSVKGRFTISRDNSKNTLYLQMNSLRAEDTAVYYCAKDPVQDRYYFYYYYMDVWGKGTTVTVSS
VL: B15 VL with N28S, H50Y, F55I, T85A, Y96H
notes: VH and VL only

Kd (human CD3e/d): 3200 nM
B19: mAb 290 (antibody, V domains shown)
VH: EVQLVESGGGVVRPGGSLRLSCAASGFTFDDYGMSWVRQAPGKGLEWVSGISWNGGSTGYADSVKGRFTISRDNAKNSLYLQMNSLRAEDTALYHCARDGVPVVKRRYYYYYMDVWGKGTTVTVSS
VL: B15 VL with V19I, N28S, H50Y, S92A, Y96Q, L104V
notes: VH and VL only

The remaining lines, values behind:

B1: mAb 77 (antibody, V domains shown)
VH: EVQLVESGGGLVQPGGSLRLSCAASGFTFSNYWMSWVRQAPGKGLEWVANIKQDGSEKYYVDSVRGRFTISRDNAKKSLYLQMNSLRAEDTAVYYCARDNSNYAYWYFDIWGRGTLVTVSS
VL: DIQMTQSPSTLSVSVGDRVTITCRASQSIRKWLAWYQQKPGKAPKLLIFKASSLESGVPSRFSGSGSGTEFTLTISSLQPDDFATYYCQQYDTYSRTFGQGTKVEIK
notes: VH and VL only
Kd (human CD3e/d): 286 nM

B9: mAb 109 (antibody, V domains shown)
VH: QVQLVESGGGVVQPGRSLRLSCVASGFPFRSYGMHWVRQAPGKGLEWVAFIWYDGSNKYYADSVRGRFTISRDNFKKMVYLQMNSLRAEDTAVYYCARDLAGIYAFDVWGQGTVVTVSS
VL: EIVMTQSPATLSVSPGERATLSCRASQSVSSNLAWYQQKPGQAPRLLIYGASTRATGIPARFSGSGSGTEFTLTVSSLQSEDFAIYYCQQYNNWRPLTFGGGTKVEIK
notes: VH and VL only
Kd (human CD3e/d): 21.7 nM

B10: mAb 177 (antibody, V domains shown)
VH: EVQLVESGGGLVQPGMSLRLSCAASGFTFDDYTMHWVRQSPGKGLEWVAGISWNSGTIGYGDSMKGRFTISRDNAKNSLDLQMNSLRVEDTALYYCAKDTSGYGHYYYYFMDVWGKGTTVTVSS
VL: DIQMTQSPSSLSASIGDRVSITCRTSQIINNYLNWYQQKPGKAPKLLIYSASSLQSGVPSRFSGSGSGTDFTLTLSSLQPEDFATYFCQQSYNFPITFGQGTRLELK
notes: VH and VL only; The printed VL holds a letter 'U'
Kd (human CD3e/d): 41.1 nM

B11: mAb 178 (antibody, V domains shown)
VH: B13 VH with T40A, S57T, T78S, L107Y, Y108K
VL: DIQMTQSPSSLSASVGDRVTITCRASQSISNYLNWYQQKAGKVPKVLIYGSSSLQSGVPSRFSGSGSGTDFTLTISSLQPEDFASYYCQQTYSSPLTFGGGTKVDFK
notes: VH and VL only
Kd (human CD3e/d): 0.992 nM

B12: mAb 119 (antibody, V domains shown)
VH: B13 VH with T40A, D50G, T78S, V97S, H105Y, Y108N, Y110S, M111L
VL: EIVMTQSPATLSVSPGERATLSCRASQSVSNLAWYQQKPGQAPRLLIYGASTRATGIPARFSGSGSGTEFTLTISSLQSEDFAVYYCQQYNNWPHFGQGTRLQIK
notes: VH and VL only
Kd (human CD3e/d): 37.2 nM

B14: mAb 228 (antibody, V domains shown)
VH: B18 VH with S31N, S35N, S50T, S57G, R58K, Q82H
VL: B15 VL with N28S, H50Y, F55I, T85A, Y96H
notes: VH and VL only
Kd (human CD3e/d): 25 nM

B16: mAb 286 (antibody, V domains shown)
VH: B19 VH with Q3K
VL: B15 VL with N28S, H50Y, S65R, S92G, Y96Q, L104V
notes: VH and VL only
Kd (human CD3e/d): 580 nM

B20: mAb 42 (antibody, V domains shown)
VH: QAQLVQSGSELKKPGASVKVSCKASGYTFTKHSMNWVRQAPGQGLEWMGWINTNTGNPTYAQGFTGRFVFSLDTSVTTAYLQISSLKAEDTAVYYCAREGDYDFWSGFFNFDYWGQGTLVTVSS
VL: DIQMTQSPSSLSASVGDRVTITCRASQGIRNDLGWYQQKPGKAPKRLIYAASSLQSGVPSRFSGSGSGAEFTLTISSLQPEDFATYYCLQHNSYPRTFGQGTKVEIK
notes: VH and VL only
Kd (human CD3e/g): 19.4 nM

B21: mAb 43 (antibody, V domains shown)
VH: B20 VH with T59M
VL: B20 VL
notes: VH and VL only
Kd (human CD3e/g): 21.7 nM
